Values belong to the molecule of their own block, whether it stands above or below them.
How the values were obtained:
[1] = biological target: IL-17RA and IL-17RC co-expressed on 293F-IL-17RA-IL-17Rc-ACT1-NFκB-Luc cells (UniProt Q96F46); experiment: flow cytometry; IL17A-His on 293F-IL-17RA-IL-17Rc-ACT1-NFκB-Luc cells, APC anti-His
[2] = biological target: T1, Biotin-IL-17A-His (human, UniProt Q16552 24-155, limits assumed, biotin (site not stated)); experiment: ELISA; antibody coated at 2 ug/mL, Biotin-IL-17A-His titrated from 10 ug/mL (5-fold, 7 points), HRP-Streptavidin; the concentration is that of IL-17A
T1 construct: also called 人IL-17A蛋白 (biotinylated)
T1 sequence: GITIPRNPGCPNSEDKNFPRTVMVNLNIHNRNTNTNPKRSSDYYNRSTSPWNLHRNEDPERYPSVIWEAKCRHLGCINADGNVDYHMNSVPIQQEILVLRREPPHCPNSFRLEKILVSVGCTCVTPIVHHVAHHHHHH

阳性率 [1]: > 90%
Molecule: Human IL-17A重组蛋白 (C-terminal 6×His) (from UniProt Q16552 24-155) (ligand)

EC50 [2]: 10.1 µg/mL
B1: 阳性对照抗体Ixekizumab (antibody, human IgG4 S228P, kappa, V domains shown)
VH: QVQLVQSGAEVKKPGSSVKVSCKASGYSFTDYHIHWVRQAPGQGLEWMGVINPMYGTTDYNQRFKGRVTITADESTSTAYMELSSLRSEDTAVYYCARYDYFTGTGVYWGQGTLVTVSS
VL: DIVMTQTPLSLSVTPGQPASISCRSSRSLVHSRGNTYLHWYLQKPGQSPQLLIYKVSNRFIGVPDRFSGSGSGTDFTLKISRVEAEDVGVYYCSQSTHLPFTFGQGTKLEIKR
notes: also called 阳性抗体

Reference: patent CN118206654A (BEILAI PHARMACEUTICAL CO LTD, dated 2024)
